# Source: article doi:10.1101/2025.08.29.673170
# Target: F-actin (pre-polymerized actin filaments) (UniProt P68135)
# Assay: co-sedimentation
Substance,duty ratio KABD = kon/(kon + koff),Kd
10xHis-SNAP-EzrABD (domain or fragment),0.14,–
10xHis-SNAP-EzrABD K577A (domain or fragment),0.1,10 µM
10xHis-SNAP-UtrABD (from UniProt P46939 1-261) (domain or fragment),0.71,0.4 µM
